According to patent US7981423B2, “Rage fusion proteins” (Transtech Pharma, Inc., priority 2004, dated 2011):

System: RAGE (S100b-stimulated THP-1 cells)
Assay: S100b/RAGE-induced production of TNF-α in THP-1 cells
Format: cell-based
Details: 10 μg protein, FIG. 10
Description: THP-1 myeloid cells may be cultured in RPMI-1640 media supplemented with 10% FBS and induced to secrete TNF-α via stimulation of RAGE with S100b. When such stimulation occurs in the presence of a RAGE fusion protein, induction of TNF-α, by S100b binding to RAGE may be inhibited.
Previous work has shown that the myeloid THP-1 cells may secrete TNF-α in response to RAGE ligands. In this assay, THP-1 cells were cultured in RPMI-1640 media supplemented with 10% FBS using a protocol provided by ATCC. […] The amount of TNF-α secreted by the THP-1 cells was measured 24 hours after the addition of the proteins to the cell culture using a commercially available ELISA kit for TNF-α (R&D Systems, Minneapolis, Minn.).

B1: TTP-4000: four domain RAGE fusion protein (SEQ ID NO: 32): human RAGE amino acids 1-251 linked to CH2 and CH3 domains of human IgG (protein)
chain: MAAGTAVGAWALVLSLWGAVVGAQNITARIGEPLVLKCKGAPKKPPQRLEWKLNTGRTEAWKVLSPQGGGPWDSVARVLPNGSLFLPAVGIQDEGIFRCQAMNRNGKETKSNYRVRVYQIPGKPEIVDSASELTAGVPNKVGTCVSEGSYPAGTLSWHLDGKPLVPNEKGVSVKEQTRRHPETGLFTLQSELMVTPARGGDPRPTFSCSFSPGLPRHRALRTAPIQPRVWEPVPLEEVQLVVEPEGGAVAPPSVFLFPPKPKDTLMISRTPEVTCVVVDVSHEDPEVKFNWYVDGVEVHNAKTKPREEQYNSTYRVVSVLTVLHQDWLNGKEYKCKVSNKALPAPIEKTISKAKGQPREPQVYTLPPSRDELTKNQVSLTCLVKGFYPSDIAVEWESNGQPENNYKTTPPVLDSDGSFFLYSKLTVDKSRWQQGNVFSCSVMHEALHNHYTQKSLSLSPGK
- reduction of S100b induction of TNF-α (S100b 0.1 mg/ml FAC, 24 hours): ~70%
- effect on S100b induction of TNF-α (in words) (S100b 0.1 mg/ml): at least as effective in blocking S100b induction of TNF-α as is sRAGE
